According to patent US20220177589A1 (OXFORD UNIVERSITY INNOVATION, published 2022):
Substitutions are numbered along the chain they refer to. Each block holds one binder with its values, some of them ahead of it.

How the values were obtained:
[1] = biological target: full length human BTLA expressed in a Jurkat T cell line (human, UniProt Q7Z6A9 31-289); assay: cell-based or functional assay
[2] = biological target: chimeric BTLA of humanised-BTLA mice (human extracellular region, murine transmembrane and signaling … (human; mouse, UniProt Q7TSA3 184-306, limits assumed); assay: cell-based or functional assay
Sequence of chimeric BTLA of humanised-BTLA mice (human extracellular region, murine transmembrane and signaling … (Q7TSA3 other isoform, or with tags, fused parts or gaps mutant limits assumed): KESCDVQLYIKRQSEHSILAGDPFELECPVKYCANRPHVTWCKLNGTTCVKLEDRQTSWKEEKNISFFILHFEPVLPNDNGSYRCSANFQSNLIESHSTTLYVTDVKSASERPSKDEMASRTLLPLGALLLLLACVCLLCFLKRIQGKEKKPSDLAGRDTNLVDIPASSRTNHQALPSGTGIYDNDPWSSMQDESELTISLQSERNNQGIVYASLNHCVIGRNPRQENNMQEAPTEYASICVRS

B2: 8C4 (antibody, IgG1, V domains shown)
VH: DVQLQESGPGMVKPSQSLSLTCTVTGYSITSGYDWHWIRHFPGNKLEWMGYISYSGSTNYNPSLKSRISITHDTSKNHFFLKLNSVTTEDTATYYCARGTPVVAEDYFDYWGQGTTLTVSS
VL: QAVVTQESALSTSPGETVTLTCRSSTGAVTTSNYANWVQEKPDHLFTGLIGATNNRAPGVPARFSGSLIGDKAALTITGAQTEDEAIYFCALWYSNHLVFGGGTKLTVLG
T cell reporter (NFkB signaling), % inhibition [1]: 21% | AntiCD3/CD28 (CD4 T cell proliferation) repeat 1, % inhibition [2]: 12% | AntiCD3/CD28 (CD4 T cell proliferation) repeat 2, % inhibition [2]: 4% | AntiCD3/CD28 (CD69+ CD4 T cells) repeat 1, % inhibition [2]: 29% | AntiCD3/CD28 (CD69+ CD4 T cells) repeat 2, % inhibition [2]: 29% | MLR (CD4 T cell proliferation) repeat 1, % inhibition [2]: 42% | MLR (CD4 T cell proliferation) repeat 2, % inhibition [2]: -2%

B3: 12F11 (antibody, IgG1, V domains shown)
VH: EVQLQQSGPELVKPGASVKISCKASGYTFTDYYMNWVKQSHGKSLEWIGDINPNNGGTSYNQKFKGKATLTVDKSSSTAYMELRSLTSEDSAVYYCARWRQLRSDYWGQGTTLTVSS
VL: DIQMTQSPASQSASLGESVTITCLASQTIGTWLAWYQQKPGKSPQLLIYAATSLADGVPSRFSGSGSGTKFSFKISSLQAEDFVSYYCQQLYSTPLTFGAGTKLELK
T cell reporter (NFkB signaling), % inhibition [1]: 30% | AntiCD3/CD28 (CD4 T cell proliferation) repeat 1, % inhibition [2]: 5% | AntiCD3/CD28 (CD4 T cell proliferation) repeat 2, % inhibition [2]: 9% | AntiCD3/CD28 (CD69+ CD4 T cells) repeat 1, % inhibition [2]: 30% | AntiCD3/CD28 (CD69+ CD4 T cells) repeat 2, % inhibition [2]: 40% | MLR (CD4 T cell proliferation) repeat 1, % inhibition [2]: 28% | MLR (CD4 T cell proliferation) repeat 2, % inhibition [2]: 23%

B4: 27G9 (antibody, IgG1, V domains shown)
VH: EVQLQQSVAELVRPGASVKLSCTASGFNIKNTYMHWVKQRPEQGLEWIGRIDPANGNTKYAPKFQGKATITADTSSNTAYLQLSSLTSEDTAIYYCALTYYGSSQYYFDYWGQGTTLTVSS
VL: not shown
T cell reporter (NFkB signaling), % inhibition [1]: 24% | AntiCD3/CD28 (CD4 T cell proliferation) repeat 1, % inhibition [2]: 10% | AntiCD3/CD28 (CD4 T cell proliferation) repeat 2, % inhibition [2]: 13% | AntiCD3/CD28 (CD69+ CD4 T cells) repeat 1, % inhibition [2]: 24% | AntiCD3/CD28 (CD69+ CD4 T cells) repeat 2, % inhibition [2]: 22% | MLR (CD4 T cell proliferation) repeat 1, % inhibition [2]: 9% | MLR (CD4 T cell proliferation) repeat 2, % inhibition [2]: 8%

B6: 1H6 (antibody, IgG1, V domains shown)
VH: B4 VH with A61D, L81V, Y106H
VL: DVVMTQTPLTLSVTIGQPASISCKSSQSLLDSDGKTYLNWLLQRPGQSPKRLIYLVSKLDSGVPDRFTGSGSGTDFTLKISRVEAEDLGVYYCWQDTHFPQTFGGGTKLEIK
T cell reporter (NFkB signaling), % inhibition [1]: 26% | AntiCD3/CD28 (CD4 T cell proliferation) repeat 1, % inhibition [2]: 26% | AntiCD3/CD28 (CD4 T cell proliferation) repeat 2, % inhibition [2]: 19% | AntiCD3/CD28 (CD69+ CD4 T cells) repeat 1, % inhibition [2]: 47% | AntiCD3/CD28 (CD69+ CD4 T cells) repeat 2, % inhibition [2]: 53% | MLR (CD4 T cell proliferation) repeat 1, % inhibition [2]: 31% | MLR (CD4 T cell proliferation) repeat 2, % inhibition [2]: 16%

B7: 3A9 (antibody, IgG1, V domains shown)
VH: QVQLKQSGAELVRPGASVKLSCKASGYTFTDYYINWVKQRPGQGLEWIARIYPGSGNTYYNEKFKGKATLTAEKSSSTAYMQLSSLTSEDSAVYFCARGYGNSDYWGQGTTLTVSS
VL: DILLTQSPAILSVSPGERVSFSCRASQSIGTRIHWYQQRTNGSPRLLIKYASESISGIPSRFSGSGSGTDFTLSINSVESEDIADYYCQQSNSWPYTFGGGTKLEIK
T cell reporter (NFkB signaling), % inhibition [1]: 27% | AntiCD3/CD28 (CD4 T cell proliferation) repeat 1, % inhibition [2]: 9% | AntiCD3/CD28 (CD4 T cell proliferation) repeat 2, % inhibition [2]: 9% | AntiCD3/CD28 (CD69+ CD4 T cells) repeat 1, % inhibition [2]: 22% | AntiCD3/CD28 (CD69+ CD4 T cells) repeat 2, % inhibition [2]: 34% | MLR (CD4 T cell proliferation) repeat 1, % inhibition [2]: 7% | MLR (CD4 T cell proliferation) repeat 2, % inhibition [2]: 24%

Continued, values first:

T cell reporter (NFkB signaling), % inhibition [1]: 22% | AntiCD3/CD28 (CD4 T cell proliferation) repeat 1, % inhibition [2]: 4% | AntiCD3/CD28 (CD4 T cell proliferation) repeat 2, % inhibition [2]: 8% | AntiCD3/CD28 (CD69+ CD4 T cells) repeat 1, % inhibition [2]: 9% | AntiCD3/CD28 (CD69+ CD4 T cells) repeat 2, % inhibition [2]: 23% | MLR (CD4 T cell proliferation) repeat 1, % inhibition [2]: 33% | MLR (CD4 T cell proliferation) repeat 2, % inhibition [2]: 8%
B1: 16E1 (antibody, IgG1, V domains shown)
VH: QVQLQQSGAELARPGASVKLSCKASGYTFTSYGISWVKQRTGQGLEWIGEIYPRSGNTYYNEKFKGKATLTADKSSSTAYMELRSLTSEDSAVYFCARGYGSSYGFAYWGQGTLVTVSA
VL: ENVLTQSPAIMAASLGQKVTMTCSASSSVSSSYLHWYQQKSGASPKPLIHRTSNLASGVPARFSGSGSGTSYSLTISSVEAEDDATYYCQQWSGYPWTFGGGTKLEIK

T cell reporter (NFkB signaling), % inhibition [1]: 20% | AntiCD3/CD28 (CD4 T cell proliferation) repeat 1, % inhibition [2]: 4% | AntiCD3/CD28 (CD4 T cell proliferation) repeat 2, % inhibition [2]: 0% | AntiCD3/CD28 (CD69+ CD4 T cells) repeat 1, % inhibition [2]: 19% | AntiCD3/CD28 (CD69+ CD4 T cells) repeat 2, % inhibition [2]: 17% | MLR (CD4 T cell proliferation) repeat 1, % inhibition [2]: 9% | MLR (CD4 T cell proliferation) repeat 2, % inhibition [2]: -5%
B5: 26F3 (antibody, IgG1, V domains shown)
VH: B4 VH with H35Y, T99L, Q105Y, Y106D
VL: not shown

T cell reporter (NFkB signaling), % inhibition [1]: 29% | AntiCD3/CD28 (CD4 T cell proliferation) repeat 1, % inhibition [2]: 11% | AntiCD3/CD28 (CD4 T cell proliferation) repeat 2, % inhibition [2]: 19% | AntiCD3/CD28 (CD69+ CD4 T cells) repeat 1, % inhibition [2]: 35% | AntiCD3/CD28 (CD69+ CD4 T cells) repeat 2, % inhibition [2]: 30% | MLR (CD4 T cell proliferation) repeat 1, % inhibition [2]: 12% | MLR (CD4 T cell proliferation) repeat 2, % inhibition [2]: 10%
B8: 26B1 (antibody, IgG1, V domains shown)
VH: EVQLQQSGPVLVKPGASVKMSCKASGYTFTDYYLNWVKQSHGKSLEWIGLIDPYNGGSSCNQKFKGKATLTVDKSSSTAYMDLNSLTSEDSAVYYCARGNAMDYWGQGTSVTVSS
VL: DIVMTQSHKFMSTSVGDRVSITCKASQDVSTAVAWYQEKPGQSPKLLIYWASTRHTGVPDRFTGSGSGTDYILNISSVQAEDLALYYCQQHYIIPYMFGGGTKLEIK
